Patent publication US20150291697A1 (PERSEUS PROTEOMICS, published 2015)

What was measured:
[1] = target: T1, soluble TfR antigen (human TfR extracellular domain) (human, UniProt P02786 89-760); experiment: ELISA, soluble TfR antigen coated at 2 ug/mL, HRP anti-human IgG Fc, A450
T1 construct: also called soluble human TfR

[2] = target: human transferrin receptor (TfR) on cells (human, UniProt P02786 1-760); experiment: cell-based or functional assay
Chain of human transferrin receptor (TfR) on cells (P02786 whole entry): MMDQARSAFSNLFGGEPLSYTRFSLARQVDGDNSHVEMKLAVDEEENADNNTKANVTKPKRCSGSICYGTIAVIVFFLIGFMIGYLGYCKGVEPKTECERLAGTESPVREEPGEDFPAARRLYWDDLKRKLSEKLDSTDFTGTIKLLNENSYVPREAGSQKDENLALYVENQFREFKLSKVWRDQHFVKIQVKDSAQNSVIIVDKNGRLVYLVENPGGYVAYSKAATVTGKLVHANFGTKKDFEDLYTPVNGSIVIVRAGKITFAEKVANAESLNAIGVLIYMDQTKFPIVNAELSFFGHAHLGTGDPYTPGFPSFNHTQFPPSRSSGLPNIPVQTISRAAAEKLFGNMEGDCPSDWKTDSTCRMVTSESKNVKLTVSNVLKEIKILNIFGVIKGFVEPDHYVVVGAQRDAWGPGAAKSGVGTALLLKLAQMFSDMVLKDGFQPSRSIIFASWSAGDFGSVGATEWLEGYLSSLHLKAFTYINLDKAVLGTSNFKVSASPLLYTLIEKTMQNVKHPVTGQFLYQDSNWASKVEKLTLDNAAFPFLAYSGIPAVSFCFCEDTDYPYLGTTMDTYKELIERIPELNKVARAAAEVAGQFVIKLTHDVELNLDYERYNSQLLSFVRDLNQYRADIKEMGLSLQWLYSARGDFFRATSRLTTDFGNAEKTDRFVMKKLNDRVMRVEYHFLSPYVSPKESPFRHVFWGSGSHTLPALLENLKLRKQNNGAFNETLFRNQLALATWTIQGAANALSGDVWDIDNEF

T1 sequence (P02786 89-760 limits assumed): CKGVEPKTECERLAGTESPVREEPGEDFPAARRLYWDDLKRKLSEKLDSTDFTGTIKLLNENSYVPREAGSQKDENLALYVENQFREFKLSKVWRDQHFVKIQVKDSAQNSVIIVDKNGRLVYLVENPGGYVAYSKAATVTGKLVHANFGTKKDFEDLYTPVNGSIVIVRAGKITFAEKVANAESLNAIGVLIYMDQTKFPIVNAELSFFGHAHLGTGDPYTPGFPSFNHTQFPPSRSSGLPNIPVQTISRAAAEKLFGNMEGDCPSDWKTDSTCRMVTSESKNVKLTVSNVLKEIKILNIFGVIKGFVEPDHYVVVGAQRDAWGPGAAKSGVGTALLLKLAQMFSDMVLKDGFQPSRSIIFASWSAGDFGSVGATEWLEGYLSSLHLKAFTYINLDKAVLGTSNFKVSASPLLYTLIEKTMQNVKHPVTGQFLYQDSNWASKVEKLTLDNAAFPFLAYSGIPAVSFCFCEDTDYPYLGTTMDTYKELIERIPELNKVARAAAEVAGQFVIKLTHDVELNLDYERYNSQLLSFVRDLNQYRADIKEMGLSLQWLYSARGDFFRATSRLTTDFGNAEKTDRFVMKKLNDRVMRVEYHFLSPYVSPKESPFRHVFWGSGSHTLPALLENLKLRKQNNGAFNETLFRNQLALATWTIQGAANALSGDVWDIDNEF

B1: 3TF12 IgG1 antibody (from 3TF12 scFv of WO 2011/073943) (antibody, V domains shown)
VH: QVQLQESGGGLVQPGGSLRLSCAASGFSFNTYTMHWVRQAPGKGLEWVADIAYDGSTKYYADSVKGRFTISRDNAKNSLYLQMNSLRAEDTAVYYCARDAVAGEGYFDLWGRGTLVTVSS
VL: QSALTQDPAVSVALGQTVRITCQGDSLRSYYASWYQQLPGTAPKLLIYRNNQRPSGVPDRFSGSKSGTSASLAISGLRSEDEADYYCAAWDDSLSAWVFGGGTKLTVLG
notes: also called 3TF12 antibody
binding result [1]: binds

B2: TfR006 antibody (parent antibody, IgG) (antibody, V domains shown)
VH: QVQLVQSGGGVVQPGRSLRLSCAASGFPFKSYGMHWVRQAPGKGLEWVAVISFDGSSKYYADSVKGRFTISRDNSKNTLYLQMNSLRGEDTAVYYCARDSNFWSGYYSPVDVWGQGTTVTVSS
VL: NFMLTQPHSVSESPGKTVTISCTRSSGSIASNSVQWYQQRPGSAPITVIYEDTQRPSGVPDRFSGSIDSSSNSASLTISGLQTEDEADYYCQSYDSAYHWVFGGGTKLAVL
Antibody concentration exhibiting 50% growth rate (IC50), K562 cells [2]: 0.034 µg/mL | Antibody concentration exhibiting 50% growth rate (IC50), MT-2 cells [2]: 0.008 µg/mL
